Assays:
[1] = target: endogenous HSP70 from the mouse Ret melanoma cell line (mouse) (UniProt Q61696); assay: cell-based or functional assay
[2] = target: recombinant HSP70 (UniProt P0DMV8); assay: ELISA, plate coated with recombinant HSP70, detection with anti-human peroxidase antibody
[3] = target: recombinant catalytic domain of human LOX (169-417) (human) (UniProt P28300); assay: ELISA, plate coated with LOX catalytic domain, detection with anti-human peroxidase antibody
Sequence of recombinant catalytic domain of human LOX (169-417) (human) (P28300 169-417 limits assumed): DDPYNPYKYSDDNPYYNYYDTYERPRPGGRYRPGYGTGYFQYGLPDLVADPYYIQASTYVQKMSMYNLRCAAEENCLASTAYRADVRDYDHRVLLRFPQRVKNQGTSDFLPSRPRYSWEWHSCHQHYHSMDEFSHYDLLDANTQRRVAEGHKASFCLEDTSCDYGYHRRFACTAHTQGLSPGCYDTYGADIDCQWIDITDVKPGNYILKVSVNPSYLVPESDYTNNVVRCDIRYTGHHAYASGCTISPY

Sequence of recombinant HSP70 (P0DMV8 whole entry, the tested form may be a part): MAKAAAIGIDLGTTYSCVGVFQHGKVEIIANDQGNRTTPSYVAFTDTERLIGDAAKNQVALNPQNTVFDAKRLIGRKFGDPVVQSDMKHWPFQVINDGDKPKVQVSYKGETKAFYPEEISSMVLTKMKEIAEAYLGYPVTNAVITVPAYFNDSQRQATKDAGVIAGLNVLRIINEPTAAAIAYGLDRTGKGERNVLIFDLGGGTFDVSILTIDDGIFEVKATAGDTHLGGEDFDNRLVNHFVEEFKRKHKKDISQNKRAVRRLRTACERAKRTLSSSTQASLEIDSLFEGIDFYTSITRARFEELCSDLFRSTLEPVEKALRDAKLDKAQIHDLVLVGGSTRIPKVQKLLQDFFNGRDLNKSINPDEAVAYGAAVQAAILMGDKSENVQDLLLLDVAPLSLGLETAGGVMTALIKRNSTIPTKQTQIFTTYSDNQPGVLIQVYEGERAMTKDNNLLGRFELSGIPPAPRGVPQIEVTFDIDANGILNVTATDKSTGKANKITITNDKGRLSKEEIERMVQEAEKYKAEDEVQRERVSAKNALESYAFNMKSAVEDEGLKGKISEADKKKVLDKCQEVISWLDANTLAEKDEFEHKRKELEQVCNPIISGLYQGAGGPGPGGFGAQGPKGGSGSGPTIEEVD
Sequence of endogenous HSP70 from the mouse Ret melanoma cell line (mouse) (Q61696 2-641): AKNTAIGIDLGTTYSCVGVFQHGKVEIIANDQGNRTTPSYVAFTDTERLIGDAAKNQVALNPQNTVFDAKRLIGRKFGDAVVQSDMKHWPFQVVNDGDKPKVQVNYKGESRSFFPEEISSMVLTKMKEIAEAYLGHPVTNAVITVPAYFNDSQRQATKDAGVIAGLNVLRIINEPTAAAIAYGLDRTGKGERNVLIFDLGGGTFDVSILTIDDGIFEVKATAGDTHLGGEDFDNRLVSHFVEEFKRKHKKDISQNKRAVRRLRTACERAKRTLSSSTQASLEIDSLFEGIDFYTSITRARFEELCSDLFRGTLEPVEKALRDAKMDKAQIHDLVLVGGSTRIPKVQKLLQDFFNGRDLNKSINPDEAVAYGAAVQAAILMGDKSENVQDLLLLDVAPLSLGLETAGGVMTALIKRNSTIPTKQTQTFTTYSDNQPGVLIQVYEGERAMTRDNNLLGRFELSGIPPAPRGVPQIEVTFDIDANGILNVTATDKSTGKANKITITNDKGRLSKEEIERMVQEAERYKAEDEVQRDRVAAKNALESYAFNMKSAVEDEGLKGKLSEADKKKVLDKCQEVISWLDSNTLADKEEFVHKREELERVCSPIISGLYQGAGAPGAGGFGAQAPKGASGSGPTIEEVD

“AS2 (non-glycosylated LOX-PP fused to human IgG1 Fc) (Fc fusion)” was tested. Which ATPase activity of HSP70 in the culture media of Ret-melanoma cells (decrease against Fc) [1] did it give?
Its ATPase activity of HSP70 in the culture media of Ret-melanoma cells (decrease against Fc) is 18%.

What about the EC50 [2] of the same substance?
Its EC50 is 0.057 µM.

What about the EC50 [3] of the same substance?
The EC50 was 0.058 µM.
